Earlier results in US5189019A, “Antistasin derived anticoagulant protein” (Merck & Co., Inc., priority 1990, dated 1993).

Molecular target: Factor Xa (Homo sapiens, UniProt P00742)
Details: Tuszynski et al. 1987; Nutt et al. 1988

Factor Xa, sequence (P00742 235-488 limits assumed): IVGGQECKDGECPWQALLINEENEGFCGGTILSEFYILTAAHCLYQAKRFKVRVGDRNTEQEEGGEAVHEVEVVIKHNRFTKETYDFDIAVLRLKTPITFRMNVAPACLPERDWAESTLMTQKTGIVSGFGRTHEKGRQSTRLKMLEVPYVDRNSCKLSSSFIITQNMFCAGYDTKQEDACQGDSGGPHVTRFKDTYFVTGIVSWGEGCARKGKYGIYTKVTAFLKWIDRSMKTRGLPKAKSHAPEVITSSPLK
Factor Xa, sequence (P00742 41-179 partner limits assumed): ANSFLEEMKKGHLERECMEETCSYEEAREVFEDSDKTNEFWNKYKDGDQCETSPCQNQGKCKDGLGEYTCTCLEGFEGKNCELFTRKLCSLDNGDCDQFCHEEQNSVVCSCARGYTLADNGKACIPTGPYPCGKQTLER

B1: Antistasin: 15 kDa cysteine rich protein found in the salivary gland of the Mexican leech, Haementeria officinalis (protein, UniProt P15358 18-136, looked up)
Antistasin: QGPFGPGCEEAGCPEGSACNIITDRCTCSGVRCRMHCPHGFQRSRYGCEFCKCRLEPMKATCDISECPEGMMCSRLTNKCDCKIDINCRKTCPNGLKRDKLGCEYCECRPKRKLIPRLS
For B1, the “inhibition of Factor Xa in the human blood coagulation cascade” value is given as “potent inhibitor”.
